Experimental data from US11161908.

Target: human BAFF-R-GFP fusion protein expressed on the surface of mouse fibroblast (L) cells, clone D2C (human) (UniProt Q96RJ3)
Assay: cell ELISA of hybridoma supernatant on (h)BAFF-R-expressing cells, anti-mouse IgG-HRP; same clone on parental L cell: 0.102

OD 450 nm: 1.07 OD 450 nm
B1: mouse monoclonal antibody from hybridoma Clone 55 (antibody, V domains shown)
VH: QVTLKESGPGILKPSQTLSLTCSFSGFSLSTSGMGVGWIRQPSGKGLEWLAHIWWDDDKYYNSSLKSHLTISKDTSRNQVFLKITSVDTADTATYYCARSFGYGLDYWGQGTTLTVSS
VL: DIQMTQTTSSLSASLGDRVTISCSASQDISNYLNWYQQKPDGTVKLLIYYTSSLHSGVPSRFSGSGSGTDYSLTISSLEPEDIATYYCHQFSELPWTFGGGTKLEIK
